Results as given in patent publication US20040265337A1, “Method of generating an immune response and compositions used for same” (priority 2002, published 2004).

Legend:
[1] = tested on: trypsin; conditions: in vitro; cited from earlier work
[2] = tested on: human CEA antigen; test: Cytotoxicity (CTL) assays in HD-5 transgenic mice immunized orally with the Salmonella based CEA-DNA vaccine; assay type: in vivo; conditions: oral immunization, defensin inhibitor co-formulated or expressed by the strain
Source text: HD-5 inhibitors enhance efficacy of whole organism vaccines such as Salmonella enterica serovar Typhimurium. Human defensin 5 (HD-5), is the major defensin in humans which is bactericidal for Salmonella typhimurium infection. HD-5 transgenic mice are dramatically more resistant to Salmonella typhimurium infection providing a model system to study effectiveness of Salmonella typhimurium as a platform vaccine carrier in the presence of inhibitors of HD-5. See Gosh D. et al., Nature Immunology, 3:583 (2002); Zasloff M, Nature Immunology, 3:508 (2002). HD-5 inhibitors increase efficacy of the Salmonella enterica based human CEA-DNA vaccine. Human CEA (carcinoembryonic antigen) is a tumor antigen for which protective immunity can be induced by vaccination with a live attenuated Salmonella enterica vaccine. See Xiang R. et al., Clinical Cancer Research, 7: 856s (2001). Efficacy of the vaccine is measured by conducting cytotoxicity (CTL) assays in HD-5 transgenic mice to measure immune response to the human CEA antigen. CTL assays are conducted in mice immunized orally with various doses of the vaccine (RemeStim-CEA), with or without addition of the HD-5 inhibitor. […]

[3] = target: T1, HD-5 (Homo sapiens, UniProt Q01523); conditions: in vitro, against Salmonella enterica serovar Typhimurium; cited from earlier work
T1 sequence (Q01523 63-94 limits assumed): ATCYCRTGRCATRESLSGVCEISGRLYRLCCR

[4] = tested on: Salmonella enterica serovar Typhimurium; conditions: cited from earlier work

N=C(N)c1ccc(CS(=O)(=O)F)cc1 [APMSF, 4-amidinophelylmethane sulfonyl-fluoride]
inhibition of maturation of pro-HD-5 to mature HD-5 by trypsin [1]: inhibit maturation of pro-HD-5 to mature HD-5

Dermatan sulfate [reference compound]
effectiveness of the Salmonella based CEA-DNA vaccine as measured by cytotoxicity assays [2]: enhances the effectiveness
inhibition of the bactericidal activity of the mature, active defensin [3]: inactivates alpha-defensin anti-bacterial activity

Pro-piece of HD-5: pro-domain of human HD-5 (amino acids 20-62), HD-5 peptide inhibitor (ESLQERADEATTQKQSGEDNQDLAISFAGNGLSALRTSGSQAR)
inhibition of the bactericidal activity of the mature, active defensin [3]: inhibit the bactericidal activity

alpha 1-proteinase inhibitor: serpin, inhibitor of defensins
inhibition of the bactericidal activity of the mature, active defensin [3]: inhibit the bactericidal activity

alpha 2-macroglobulin: protein inhibitor of defensins
inhibition of the bactericidal activity of the mature, active defensin [3]: inhibit the bactericidal activity

B1: HD-5: human defensin 5, anti-microbial peptide of the human intestine (protein, UniProt Q01523 20-94, looked up)
Defensin alpha 5: ESLQERADEATTQKQSGEDNQDLAISFAGNGLSALRTSGSQARATCYCRTGRCATRESLSGVCEISGRLYRLCCR
modifications: Defensin-5
notes: human defensin 5, anti-microbial peptide of the human intestine
bactericidal activity against Salmonella Typhimurium [4]: bactericidal

B2: alpha 1-antichymotrypsin: serpin, inhibitor of defensins (protein, UniProt P01011 24-423, looked up)
Alpha-1-antichymotrypsin: HPNSPLDEENLTQENQDRGTHVDLGLASANVDFAFSLYKQLVLKAPDKNVIFSPLSISTALAFLSLGAHNTTLTEILKGLKFNLTETSEAEIHQSFQHLLRTLNQSSDELQLSMGNAMFVKEQLSLLDRFTEDAKRLYGSEAFATDFQDSAAAKKLINDYVKNGTRGKITDLIKDLDSQTMMVLVNYIFFKAKWEMPFDPQDTHQSRFYLSKKKWVMVPMMSLHHLTIPYFRDEELSCTVVELKYTGNASALFILPDQDKMEEVEAMLLPETLKRWRDSLEFREIGELYLPKFSISRDYNLNDILLQLGIEEAFTSKADLSGITGARNLAVSQVVHKAVLDVFEEGTEASAATAVKITLLSALVETRTIVRFNRPFLMIIVPTDTQNIFFMSKVTNPKQA
inhibition of the bactericidal activity of the mature, active defensin [3]: inhibit the bactericidal activity
